Substrate in this data set: CCn1c(=NN=c2sc3cc(S(=O)(=O)O)ccc3n2CC)sc2cc(S(=O)(=O)O)ccc21
The data set is described as follows: purified protein. Type of data set: biochemical, Gelatoporia subvermispora. As to conditions: 0.1 M tartrate pH 3.5, 25°C, 0.1 mM H2O2, no Mn2+, micro and ± signs lost in table, µM supported by b43.

Km, kcat and kcat/Km data for two proteins are collected here from paper PMC4257621, “Structural implications of the C-terminal tail in the catalytic and stability properties of manganese peroxidases from ligninolytic fungi” (Acta Crystallographica Section D: Biological Crystallography, 2014).

B1: MnP6 short variant (Gelatoporia subvermispora B; D200V) (protein)
chain: AVCSDGTRVSNAVCCDFVSLGQDLQSMVLQGDCGEDAHEIIRLTFHDAVAISRKLGPSAGGGADGSMLLFPLVEPEFAASNGIDDSVNNLIPFLSLHPTISAGDLVQFAGAVALSNCPGAPRVQFLAGRPNHTIAAIDGLIPEPQDNVTSILERFDDAGGFTPFEVVSLLASHTIARAVKVDPTLDAAPFDTTPFTFDSQIFLEVLLKGVGFPGLDNNTGEVSSPLPLGDTSTGGKDTGLMRLQSDFALAHDPRTACFWQGFVDQQEFMSQSFASAFAKLAVLGHNTDDLIDCSEVVPVPKPAVDKPTTFPATTGPQDLELSCLAERFPTLSVDPGAQETLIPHCSD
Consider B1, for which the Michaelis constant (Km) turned out to be 288 ± 12 µM, the catalytic constant (kcat) stood at 76 ± 1 s⁻¹ and the kcat/Km amounted to 263000 M⁻¹ s⁻¹.

B2: MnP13 (short) (Gelatoporia subvermispora B) (protein)
chain: VTCPDGVNTVANAACCPLFAVRDDIQESLFDGGKCGEEVHESLRLTFHDAIGFSPSLTAQGKFGGGGADGSIAIFESIETGYHANLGIDEIINEQATFILKHNMTAGDFIQFAGAVGVSNCPGAPQLEFLLGRPAATAPAPDKTVPEPFDTVDSILARFGDAGFSPQEVIALLASHSVAAADHVDPAIPGTPFDSTPSDFDPQIFIEVQLRGTLFPGTGGNQGEVESPYPGEIRLQSDHNLARDSRTACFWQSLANNQQQMQAQFKAAMAKLAVLGQDVSQMVDCSDVIPVPLPPATTPHIPAGLSQNNIEQACATAAFPTLPIDVGPQTSIPPVPGS
With B2, the Michaelis constant (Km) stood at 2440 ± 200 µM, the turnover number (kcat) was 93 ± 3 s⁻¹ and the specificity constant (kcat/Km) came out at 38000 M⁻¹ s⁻¹.
